Assay results as given in patent US20180127510A1 (INSERM INSTITUT NATIONAL DE LA SANT ET DE LA RECHERCHE M …, published 2018).
Positions count from the first letter of the chain named.

B1: anti-Cath-D scFv E2 (scFv, V domains shown)
VH: EVQLVESGGSLVKPGGSLRLSCAASGFTFSNSYMNWVRQAPGKGLEWISYISGSSRYSYADFVKGRFTISRDNATNSLYLQMNSLRAEDTAVYYCVRSSNSYFGGGMDVWGRGTLVTVSS
VL: QSVLTQPASVSGSPGQSITISCAGTSSDVGGSYGVSWYQQHPGKAPKLMIYGDSYRPSGVSNRFSGSKSGNTASLTISGLQAEDEADYYCSSYTNYSTRVFGGGTKLAVL
B2: anti-Cath-D scFv F1 (scFv, V domains shown)
VH: EVQLVESGGSLVKPGGSLRLSCAASGFTSNNYMNWVRQAPGKGLEWISYISGSSRYISYADFVKGRFTISRDNATNSLYLQMNSLRAEDTAVYYCVRSSNSGGMDVWGRGTLVTVSS
VL: B1 VL with S32Y, G52Y, N95S, Y96N

What was measured:
[1] = biological target: T1, human mature (34+14-kDa) Cath-D (human, UniProt P07339 65-162; P07339 169-412); test: cleavage of fluorogenic substrate M0938 by mature Cath-D at pH 6, competitive inhibition fit (n=3)
T1 construct: domain: 14-kDa light chain;domain: 34-kDa heavy chain; Purified from human liver (Sigma Aldrich); also called mature Cath-D; mature cath-D
T1 sequence (P07339 65-162 limits assumed, chain 1 of 2): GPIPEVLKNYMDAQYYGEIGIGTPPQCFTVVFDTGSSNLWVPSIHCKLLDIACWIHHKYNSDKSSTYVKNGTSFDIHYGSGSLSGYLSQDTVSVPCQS
T1 sequence (P07339 169-412 limits assumed, chain 2 of 2): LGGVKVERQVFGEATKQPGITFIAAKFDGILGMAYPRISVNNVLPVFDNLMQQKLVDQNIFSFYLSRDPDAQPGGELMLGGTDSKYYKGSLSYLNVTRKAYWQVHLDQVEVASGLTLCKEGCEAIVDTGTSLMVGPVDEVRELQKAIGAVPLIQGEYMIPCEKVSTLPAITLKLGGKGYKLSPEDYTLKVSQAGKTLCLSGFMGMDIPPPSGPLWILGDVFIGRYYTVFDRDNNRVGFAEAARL

[2] = biological target: T2, human 51-kDa pseudo-Cath-D (human, UniProt P07339 47-412, limits assumed); test: cleavage of fluorogenic substrate M2295 by pseudo-Cath-D at pH 6, competitive inhibition fit (n=3)
T2 construct: domain: 51-kDa pseudo-Cath-D
T2 sequence (P07339 47-412 limits assumed): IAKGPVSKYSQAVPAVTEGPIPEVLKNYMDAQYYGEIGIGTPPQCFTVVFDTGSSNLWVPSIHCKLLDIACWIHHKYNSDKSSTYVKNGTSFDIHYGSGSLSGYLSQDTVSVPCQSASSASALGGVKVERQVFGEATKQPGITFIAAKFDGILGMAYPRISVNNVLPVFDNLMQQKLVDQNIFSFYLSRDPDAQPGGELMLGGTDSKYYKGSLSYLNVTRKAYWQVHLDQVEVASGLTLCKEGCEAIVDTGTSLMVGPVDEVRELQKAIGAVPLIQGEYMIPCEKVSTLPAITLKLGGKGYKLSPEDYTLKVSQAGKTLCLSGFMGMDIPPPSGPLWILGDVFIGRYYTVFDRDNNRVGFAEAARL

Row | Binder | Ki [1] | Ki [2]
1 | B1 | 24 nM | 754 nM
2 | B2 | 100 nM | 212 nM
